A value given as a limit tells only on which side of the number the result lay.

Experiment [1] deals with T1, UNC5C recombinant human antigen, Fc-tagged (R&D Systems, #1005-UN) (human, UniProt O95185 41-380, limits assumed).
T1 construct: Bought protein; also called rhUNC5C; not shown: Fc tag of the bought protein
Kind of experiment: ELISA, antigen down. Background: ELISA stands for enzyme-linked immunosorbent assay.

For experiment [2], the target named is T2, Recombinant cyno UNC5C (N-terminal His and FLAG tag), in-house production from HEK293F cells (cyno, UniProt O95185 41-380 (human entry), limits assumed).
T2 construct: also called cyno UNC5C (Inhouse antigen); cyno antigen
Kind of experiment: direct ELISA. Here is the method:
(§1) The plate was washed with PBS. Plates were blocked with 200 μl/well of blocking solution (1% BSA w/v in PBS) for 1 hour at room temperature. Following this, the blocking solution was removed and antibodies to be assessed were diluted in dilution series (1 μM to 0.05 nM) in blocking solution (1% BSA w/v in PBS) and applied to the plate. Plates were incubated at room temperature for 1 hour. The plate was washed with PBS/0.1% Tween. […] The plate was washed with PBS/0.1% Tween and TMB solution (Life Technology; #002023) added. Plates were incubated for 5 minutes at room temperature prior to the addition of stopping solution (0.5M sulphuric acid). Absorbance was read on Molecular Devices FilterMaxF5 plate reader at 450 nm. Analysis was performed using a non-linear fit curve fitting algorithm on GraphPad prism and EC50 calculated.
(§2) To measure the binding potency of antibodies to UNC5C protein, antibodies were assessed in a direct ELISA format for binding to human UNC5C. In addition, a selection of these antibodies was also screened for binding to mouse, cyno, and rat UNC5C in a direct ELISA format.

Experiment [3] deals with T3, Recombinant rat UNC5C (N-terminal His and FLAG tag), in-house production from HEK293F cells (rat, UniProt Q761X5 41-380).
T3 construct: also called rat UNC5C (inhouse antigen); rat antigen
Kind of experiment: direct ELISA. Here is the method: as §1, §2

For experiment [4], the target named is T4, rmUNC5C, in-house production from HEK293F cells (N-terminal His and FLAG tag + amino acids 41-380 of murine … (mouse, UniProt O08747 41-380)).
T4 construct: extracellular domain; also called mouse UNC5C (Inhouse antigen); recombinant mouse UNC5C
Kind of experiment: direct ELISA. Here is the method:
as §1, §2

The target of experiment [5] is T5, Human Neogenin (R&D Systems catalogue number 8607-NE; BLI antigen) (Human, UniProt Q92859 34-1105).
T5 construct: extracellular domain; Bought protein; also called neogenin-1 ectodomain; NEO1
T5 sequence (looked up): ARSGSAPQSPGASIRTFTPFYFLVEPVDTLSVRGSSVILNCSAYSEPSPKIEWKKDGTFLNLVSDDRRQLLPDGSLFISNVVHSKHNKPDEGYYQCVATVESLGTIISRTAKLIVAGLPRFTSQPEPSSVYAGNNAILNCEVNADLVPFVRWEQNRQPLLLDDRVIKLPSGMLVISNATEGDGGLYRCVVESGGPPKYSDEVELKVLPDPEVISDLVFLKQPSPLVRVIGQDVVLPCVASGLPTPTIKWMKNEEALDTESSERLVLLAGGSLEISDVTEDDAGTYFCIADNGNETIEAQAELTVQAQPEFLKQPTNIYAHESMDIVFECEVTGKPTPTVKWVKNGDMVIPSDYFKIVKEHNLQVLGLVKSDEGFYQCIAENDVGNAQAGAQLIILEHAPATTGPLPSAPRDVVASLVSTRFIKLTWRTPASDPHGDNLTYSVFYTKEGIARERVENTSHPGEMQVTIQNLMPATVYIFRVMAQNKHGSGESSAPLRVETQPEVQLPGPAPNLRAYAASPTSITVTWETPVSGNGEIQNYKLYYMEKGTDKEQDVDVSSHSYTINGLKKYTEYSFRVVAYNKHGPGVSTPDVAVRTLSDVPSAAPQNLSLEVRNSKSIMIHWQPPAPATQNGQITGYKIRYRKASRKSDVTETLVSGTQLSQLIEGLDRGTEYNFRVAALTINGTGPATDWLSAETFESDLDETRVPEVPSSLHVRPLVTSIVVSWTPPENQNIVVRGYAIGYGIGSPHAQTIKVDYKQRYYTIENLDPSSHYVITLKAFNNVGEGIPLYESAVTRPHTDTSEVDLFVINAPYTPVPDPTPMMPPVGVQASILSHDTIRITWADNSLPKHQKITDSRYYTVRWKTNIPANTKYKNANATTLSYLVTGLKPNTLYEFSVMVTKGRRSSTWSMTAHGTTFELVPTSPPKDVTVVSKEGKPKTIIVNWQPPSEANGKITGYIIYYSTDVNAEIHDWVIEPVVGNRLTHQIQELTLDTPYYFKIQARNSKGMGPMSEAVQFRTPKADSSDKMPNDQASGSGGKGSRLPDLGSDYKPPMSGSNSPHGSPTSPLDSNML
Nature of the experiment: BLI, antigen captured by His tag, antibody as analyte. An excerpt: (§3) Antigen was loaded as ligand and dipped into antibody as analyte during association, and assay buffer during dissociation.
(§4) Purified recombinant antigens were purchased from a commercial supplier or prepared and purified in-house and details are shown in Table 2.
A general note: In BLI a coated tip is dipped into the sample, and binding shifts an interference pattern.

The target of experiment [6] is T6, Human recombinant UNC5A (BLI antigen) (Human, UniProt Q6ZN44 26-306).
T6 construct: Captured by His tag; also called UNC5A ectodomain
Described as above.
Text: as §3, §4

Experiment [7] deals with T7, Human recombinant UNC5D (BLI antigen) (Human, UniProt Q6UXZ4 33-379).
T7 construct: also called UNC5D ectodomain
Described as above.
Text: as §3, §4

Experiment [8] addresses T8, Human recombinant DCC (BLI antigen) (Human, UniProt P43146 26-1097).
T8 construct: also called Netrin receptor DCC ectodomain
Described as above.
Text: as §3, §4

Experiment [9] deals with T9, Human recombinant UNC5B (BLI antigen) (Human, UniProt Q8IZJ1 27-377).
T9 construct: also called UNC5B ectodomain
The description is as above.
Text: as §3, §4

The target of experiment [10] is T10, mouse UNC5C in frozen C57BL/6 mouse brain sections (mouse, UniProt O08747 41-931).
T10 construct: Native protein in fixed tissue sections; also called UNC5C in its natural central nervous system (CNS) context; mouse brain tissue
Nature of the experiment: immunofluorescence on frozen mouse brain sections, 10 µg/ml antibody.

Experiment [11] concerns the target T1, UNC5C recombinant human antigen, …. Kind of experiment: direct ELISA. Here is the method:
as §1, §2

T4 sequence (O08747 other isoform, or with tags, fused parts or gaps limits assumed): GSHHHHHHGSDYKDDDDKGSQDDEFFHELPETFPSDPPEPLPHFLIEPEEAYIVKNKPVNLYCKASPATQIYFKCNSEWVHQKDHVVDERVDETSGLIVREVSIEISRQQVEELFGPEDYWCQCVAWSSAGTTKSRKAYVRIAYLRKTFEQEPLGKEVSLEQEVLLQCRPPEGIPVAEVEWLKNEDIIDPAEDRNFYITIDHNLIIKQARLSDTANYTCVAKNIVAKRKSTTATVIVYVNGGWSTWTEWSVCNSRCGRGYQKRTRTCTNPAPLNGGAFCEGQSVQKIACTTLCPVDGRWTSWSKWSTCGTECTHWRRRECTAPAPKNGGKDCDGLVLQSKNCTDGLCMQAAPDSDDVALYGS
T3 sequence (Q761X5 other isoform, or with tags, fused parts or gaps limits assumed): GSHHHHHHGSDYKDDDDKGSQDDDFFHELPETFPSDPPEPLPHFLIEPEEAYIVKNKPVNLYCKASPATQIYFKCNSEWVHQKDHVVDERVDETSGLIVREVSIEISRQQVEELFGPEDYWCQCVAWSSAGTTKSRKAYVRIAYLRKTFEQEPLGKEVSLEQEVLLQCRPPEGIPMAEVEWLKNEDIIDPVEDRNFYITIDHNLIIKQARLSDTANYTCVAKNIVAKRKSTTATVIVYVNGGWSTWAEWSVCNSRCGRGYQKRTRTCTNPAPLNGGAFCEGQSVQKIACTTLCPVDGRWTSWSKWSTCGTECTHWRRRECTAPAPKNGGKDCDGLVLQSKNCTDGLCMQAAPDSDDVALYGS
T1 sequence (O95185 41-380 limits assumed): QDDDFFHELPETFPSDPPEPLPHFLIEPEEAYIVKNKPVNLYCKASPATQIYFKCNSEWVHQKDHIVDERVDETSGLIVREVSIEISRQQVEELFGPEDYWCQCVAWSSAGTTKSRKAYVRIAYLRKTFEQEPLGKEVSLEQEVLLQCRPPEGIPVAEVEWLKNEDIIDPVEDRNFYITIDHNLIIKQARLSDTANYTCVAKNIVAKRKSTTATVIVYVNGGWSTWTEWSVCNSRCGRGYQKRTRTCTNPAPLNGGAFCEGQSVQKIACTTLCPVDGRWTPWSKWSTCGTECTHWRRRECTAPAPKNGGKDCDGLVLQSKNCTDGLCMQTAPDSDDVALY
T8 sequence (P43146 other isoform, or with tags, fused parts or gaps): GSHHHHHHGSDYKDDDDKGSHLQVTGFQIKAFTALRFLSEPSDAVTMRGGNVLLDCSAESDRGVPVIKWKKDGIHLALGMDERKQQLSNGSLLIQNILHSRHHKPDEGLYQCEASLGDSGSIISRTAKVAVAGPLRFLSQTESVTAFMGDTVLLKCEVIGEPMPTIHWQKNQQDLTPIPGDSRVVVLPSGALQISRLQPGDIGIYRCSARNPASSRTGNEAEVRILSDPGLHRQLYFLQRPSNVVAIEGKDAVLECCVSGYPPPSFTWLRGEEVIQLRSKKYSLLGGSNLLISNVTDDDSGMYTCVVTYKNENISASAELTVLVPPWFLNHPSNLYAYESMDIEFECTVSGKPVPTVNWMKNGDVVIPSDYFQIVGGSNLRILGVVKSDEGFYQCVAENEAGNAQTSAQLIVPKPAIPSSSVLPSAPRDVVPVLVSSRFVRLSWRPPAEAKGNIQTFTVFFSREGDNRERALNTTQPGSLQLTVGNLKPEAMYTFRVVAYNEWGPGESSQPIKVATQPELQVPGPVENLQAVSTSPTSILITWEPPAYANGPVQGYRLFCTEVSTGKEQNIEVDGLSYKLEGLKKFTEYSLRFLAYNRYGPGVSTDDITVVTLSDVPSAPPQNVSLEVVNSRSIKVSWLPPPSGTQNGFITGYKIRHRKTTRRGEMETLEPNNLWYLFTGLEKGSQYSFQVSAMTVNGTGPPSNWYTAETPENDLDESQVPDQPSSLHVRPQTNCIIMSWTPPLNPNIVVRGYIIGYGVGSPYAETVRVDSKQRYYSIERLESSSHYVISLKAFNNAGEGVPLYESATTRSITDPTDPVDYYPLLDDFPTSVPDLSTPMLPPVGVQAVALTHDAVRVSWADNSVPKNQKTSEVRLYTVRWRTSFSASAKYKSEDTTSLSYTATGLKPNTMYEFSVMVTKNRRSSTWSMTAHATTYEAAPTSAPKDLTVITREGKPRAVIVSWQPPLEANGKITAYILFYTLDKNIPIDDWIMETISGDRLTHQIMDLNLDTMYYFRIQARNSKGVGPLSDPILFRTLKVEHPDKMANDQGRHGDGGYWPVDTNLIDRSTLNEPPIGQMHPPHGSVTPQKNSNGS
T7 sequence (Q6UXZ4 other isoform, or with tags, fused parts or gaps): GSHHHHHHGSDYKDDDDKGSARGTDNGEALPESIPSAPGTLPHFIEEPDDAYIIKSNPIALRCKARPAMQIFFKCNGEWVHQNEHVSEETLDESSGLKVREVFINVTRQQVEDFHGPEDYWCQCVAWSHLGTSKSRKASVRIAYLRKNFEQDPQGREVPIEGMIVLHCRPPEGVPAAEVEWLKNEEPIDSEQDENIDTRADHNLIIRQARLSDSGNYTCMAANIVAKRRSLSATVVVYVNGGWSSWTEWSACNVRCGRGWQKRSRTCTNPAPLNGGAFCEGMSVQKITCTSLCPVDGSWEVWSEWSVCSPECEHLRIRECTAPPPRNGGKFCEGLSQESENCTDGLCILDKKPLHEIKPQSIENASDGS
T10 sequence (O08747 41-931 limits assumed): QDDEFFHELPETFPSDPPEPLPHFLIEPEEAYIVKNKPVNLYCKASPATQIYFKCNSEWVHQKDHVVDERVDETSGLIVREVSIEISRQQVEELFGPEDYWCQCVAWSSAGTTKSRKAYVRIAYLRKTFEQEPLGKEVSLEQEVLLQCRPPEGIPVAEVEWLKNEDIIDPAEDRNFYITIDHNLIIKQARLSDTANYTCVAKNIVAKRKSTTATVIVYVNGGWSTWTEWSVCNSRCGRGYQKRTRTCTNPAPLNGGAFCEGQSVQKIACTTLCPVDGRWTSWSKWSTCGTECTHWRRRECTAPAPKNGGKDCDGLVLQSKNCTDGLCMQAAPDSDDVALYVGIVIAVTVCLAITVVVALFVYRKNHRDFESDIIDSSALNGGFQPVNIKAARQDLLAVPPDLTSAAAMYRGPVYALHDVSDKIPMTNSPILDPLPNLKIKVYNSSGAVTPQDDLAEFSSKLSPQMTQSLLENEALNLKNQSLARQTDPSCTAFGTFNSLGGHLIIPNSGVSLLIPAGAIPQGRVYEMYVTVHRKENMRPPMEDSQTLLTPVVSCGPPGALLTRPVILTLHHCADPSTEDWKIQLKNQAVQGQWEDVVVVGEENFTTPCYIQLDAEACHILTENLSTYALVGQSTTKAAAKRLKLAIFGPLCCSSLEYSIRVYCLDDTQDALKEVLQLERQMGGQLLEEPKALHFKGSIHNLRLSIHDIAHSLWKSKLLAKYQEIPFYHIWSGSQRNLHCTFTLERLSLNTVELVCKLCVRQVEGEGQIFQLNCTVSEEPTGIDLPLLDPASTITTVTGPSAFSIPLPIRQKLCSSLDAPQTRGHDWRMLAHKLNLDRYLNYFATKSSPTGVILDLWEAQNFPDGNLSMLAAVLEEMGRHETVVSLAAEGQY
T6 sequence (Q6ZN44 other isoform, or with tags, fused parts or gaps): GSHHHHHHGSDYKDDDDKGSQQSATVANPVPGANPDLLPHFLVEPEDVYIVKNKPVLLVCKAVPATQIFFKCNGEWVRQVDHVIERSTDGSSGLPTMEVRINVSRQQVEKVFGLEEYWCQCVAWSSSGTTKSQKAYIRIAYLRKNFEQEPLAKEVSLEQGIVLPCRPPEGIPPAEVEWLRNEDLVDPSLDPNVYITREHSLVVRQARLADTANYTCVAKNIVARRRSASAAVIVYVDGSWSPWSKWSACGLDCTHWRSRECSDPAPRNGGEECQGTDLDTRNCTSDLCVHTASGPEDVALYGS
T2 sequence (O95185 other isoform, or with tags, fused parts or gaps limits assumed): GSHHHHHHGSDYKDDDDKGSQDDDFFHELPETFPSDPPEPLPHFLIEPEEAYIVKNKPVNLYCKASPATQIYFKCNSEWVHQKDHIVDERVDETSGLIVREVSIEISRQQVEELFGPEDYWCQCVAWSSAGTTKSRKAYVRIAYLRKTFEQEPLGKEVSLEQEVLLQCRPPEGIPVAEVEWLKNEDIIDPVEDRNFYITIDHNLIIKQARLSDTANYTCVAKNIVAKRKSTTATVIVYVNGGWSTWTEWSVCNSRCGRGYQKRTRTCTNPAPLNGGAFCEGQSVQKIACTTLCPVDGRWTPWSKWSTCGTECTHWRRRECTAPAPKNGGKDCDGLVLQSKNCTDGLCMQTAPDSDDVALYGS

B1: ATL_0006534 (antibody, V domains shown)
VH: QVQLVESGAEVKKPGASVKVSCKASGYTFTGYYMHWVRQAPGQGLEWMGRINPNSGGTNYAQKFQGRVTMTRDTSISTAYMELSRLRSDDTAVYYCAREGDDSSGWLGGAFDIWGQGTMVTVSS
VL: NFMLTQPHSVLESPGKTVTIPCTRSSGSIASNYVQWYQQRPGSAPTAVIFEDNVRPSGVPDRFSGSVDSSSNSASLTISGLKTEDEGDFYCQSYDSSGHVVFGGGTKVTVL
notes: also called ATL_6534; Y_0001393-001
Regarding B1, the EC50 (commonly the concentration that produces a half-maximal response) in [1] is 10 pM.

B2: ATL_0005338 (antibody, V domains shown)
VH: EVKLDETGGGLVQPGRPMKLSCVASGFTFSDYWMNWVRQSPEKGLEWVAQIRNKPYNYETYYSDSVKGRFTISRDDSKSSVYLQMNNLRVEDMGIYYCTGSYYGMDYWGQGTSVTVSS
VL: DVVMTQTPLSLPVSLGDQASISCRSSQSLVNSNGNTYLRWYLQKPGQSPKVLIYKVSNRVSGVPDRFSGSGSGTDFTLKISRVEAEDLGVYFCSQSTHVPWTFGGGTKLEIK
notes: also called ATL_5338
Consider B2, for which the binding result in experiment [2] and in [3] was “no binding (tested: <1 µM)” in each case.

B3: ATL_0005262 (antibody, human IgG1, V domains shown)
VH: QVQLQESGPGLVKPSETLSLTCTVSGGSISSYFWTWIRQPPGKRLEWIGYIHNSGTTNQNPSLKSRVTISIDTSKNHFSLKLSSVTAADTAVYYCARGRGMATLPFDYWGQGTLVTVSS
VL: not shown
notes: also called ATL_5262; ATL5262
For B3, the binding result in experiment [4] is “binds”; in [3] it was “binds”; in [5], “no binding (tested: up to 100 nM)”; in experiment [6], “no binding (tested: up to 100 nM)”; in experiment [7] it was “no binding (tested: up to 100 nM)”; in experiment [8], “no binding (tested: up to 100 nM)”. The binding result in [9] is “no binding (tested: up to 100 nM)”; in experiment [10], “binds”.

B4: ATL_0006001 (antibody, IgG1, V domains shown)
VH: QVQLQESGPGLVKPSETLSLTCTVSGGSISSYFWTWIRQPPGKRLEWIGYIHNSGTTNQNPSLKSRVTISIDTSKNHFSLKLSSVTAADTAVYYCARGRGMATLPFDYWGQGTLVTVSS
VL: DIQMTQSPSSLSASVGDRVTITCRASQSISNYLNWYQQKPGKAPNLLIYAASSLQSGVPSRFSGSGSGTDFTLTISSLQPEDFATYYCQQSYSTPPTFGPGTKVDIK
notes: VL pairing variant of ATL_5262; also called ATL_6001
Turning to B4, the binding result in experiment [4] is “binds”. In experiment [11], the “signal over lysozyme control (fold)” value is not below 3 fold.

B5: ATL_0006191 (antibody, IgG1, V domains shown)
VH: QVQLQESGPGLVKPSETLSLTCTVSGGSIGSYFWSWIRQTPGKGLEWIGYIHYSGSSNYNPSLKSRVTISVDTFKNQFSLKLTSVTAADTAVYYCARGRGMATLPFDYWGQGTLVTVSS
VL: not shown
notes: ATL_5262 homologue VH paired with the VL of ATL_5262; also called ATL_6191; ATL6191
Take B5: the binding result in [4] and in experiment [3] was “binds” in each case.

B6: ATL_0006039 (antibody, IgG1, V domains shown)
VH: QVQLQESGPGLVKPSETLSLTCTVSGGSISSYFWTWIRQPPGKRLEWIGYIHNSGTTNQNPSLKSRVTISIDKSKNHFSLKLSSVTAADTAVYYCARGRGMATLPFDYWGQGTLVTVSS
VL: not shown
notes: also called ATL_6039
Regarding B6, the binding result in experiment [3] is “binds”.

Values taken from US20240228604A1 (ALCHEMAB THERAPEUTICS, published 2024).
